Here are results for one protein from PMC8621939, “Cryo-EM Structure of Mechanosensitive Channel YnaI Using SMA2000: Challenges and Opportunities” (Membranes, 2021).

The data set deals with the molecule itself. The data set can be described thus: cryo-EM structure; single-particle cryo-EM of SMA2000-purified YnaI, Titan Krios 300 kV; 3D classification without symmetry, final refinement with C7 symmetry, 2.4 Å; NCMN Buffer E (40 mM HEPES pH 7.8, 100 mM NaCl, 0.1 mM TCEP).

B1: low-conductance mechanosensitive channel-like (YnaI), wild type (natural protein, Escherichia coli, UniProt P0AEB5 1-343, looked up)
chain: MIAELFTNNALNLVIIFGSCAALILMSFWFRRGNRKRKGFLFHAVQFLIYTIIISAVGSIINYVIENYKLKFITPGVIDFICTSLIAVILTIKLFLLINQFEKQQIKKGRDITSARIMSRIIKITIIVVLVLLYGEHFGMSLSGLLTFGGIGGLAVGMAGKDILSNFFSGIMLYFDRPFSIGDWIRSPDRNIEGTVAEIGWRITKITTFDNRPLYVPNSLFSSISVENPGRMTNRRITTTIGLRYEDAAKVGVIVEAVREMLKNHPAIDQRQTLLVYFNQFADSSLNIMVYCFTKTTVWAEWLAAQQDVYLKIIDIVQSHGADFAFPSQTLYMDNITPPEQGR
notes: YnaI, MscS-like mechanosensitive channel of Escherichia coli, 343 aa, wild type, full length; Homoheptamer in SMA2000 native lipid particles; Only TM4, TM5 and the cytoplasmic domain are resolved in the map; seven phosphatidylethanolamine molecules were modelled; Cloned in pRSFDuet-1; also called mechanosensitive-like YnaI channel; SMA2000-YnaI; source: E. coli BL21 (DE3) pLysS, extracted from …
Usually stoichiometry N stands for the number of molecules, sites or subunits per partner or assembly. Take B1: the “stoichiometry N” value is 7.
